Values belong to the binder of their own block, whether it stands above or below them.
How the values were obtained:
[1] = target: T1, lectin-like transcript 1 (LLT1), recombinantly expressed on cells (human, UniProt Q9UHP7 1-191); experiment: flow cytometry on C1R-LLT1 transfectants, anti-mouse IgG secondary antibody
T1 construct: In the Western blot the protein stood in cell extracts, in the IHC validation in fixed cells; also called CLEC2D; C1R-LLT1 transfectants
T1 sequence: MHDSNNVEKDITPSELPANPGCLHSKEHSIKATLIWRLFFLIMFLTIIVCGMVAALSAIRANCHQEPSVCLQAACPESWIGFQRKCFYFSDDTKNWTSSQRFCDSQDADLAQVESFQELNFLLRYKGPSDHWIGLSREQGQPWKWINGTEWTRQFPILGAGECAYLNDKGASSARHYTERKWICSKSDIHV
Method: (§1) C1R-LLT1 transfectants and parental C1R cells were washed in PBS containing 1% FCS and incubated with anti-LLT14F or anti-LLT14F-hIgG4 antibody at concentrations 0.0003-10 μg/ml as indicated in FIG. 4 for 30 min at 4° C. followed by incubation with fluorochrome-conjugated anti-mouse or anti-human IgG secondary antibodies, respectively. Samples were washed three times in PBS containing 1% FCS and analysed by flow cytometry.

[2] = target: T2, AICL, expressed on transfected 293T cells (UniProt Q92478 1-149, limits assumed); experiment: flow cytometry on 293T cells transfected with AICL
T2 construct: whole, on cells; also called AICL-transfectants
T2 sequence (looked up): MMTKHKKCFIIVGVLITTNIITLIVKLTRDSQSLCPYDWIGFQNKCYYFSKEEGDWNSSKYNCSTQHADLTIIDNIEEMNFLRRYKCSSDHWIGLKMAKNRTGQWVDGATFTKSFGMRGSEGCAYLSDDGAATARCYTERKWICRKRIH

LLT1-Fc fusion protein [3] = target: T3, LLT1-Fc fusion protein (human, UniProt Q9UHP7 60-191, limits assumed); experiment: blocking assay by flow cytometry: binding of LLT1-Fc multimers to CD161 on 293T-CD161 cells in the presence of the antibody
T3 construct: also called LLT1-hFc; LLT-Fc; not shown: human Fc (hFc)
T3 sequence: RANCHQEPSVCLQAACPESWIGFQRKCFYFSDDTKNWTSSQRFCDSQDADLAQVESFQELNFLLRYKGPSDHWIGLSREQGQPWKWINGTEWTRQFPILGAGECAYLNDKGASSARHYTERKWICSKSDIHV
Method: A multimeric complex was generated by incubating the LLT1-Fc fusion protein with biotinylated protein A (Pierce) at a molar ratio of 1:1. Saturating amounts of purified hIgG were added to block the remaining free protein A sites. A multimer control was generated using protein A-biotin saturated with purified hIgG. These complexes were conjugated to streptavidin-allophycocyanin (BD Biosciences). […] Anti-LLT14F (4F) or control IgG1 (ctrl IgG1) was added at concentrations 0.01-200 μg/ml. For comparison, anti-LLT12F1 (2F1A5) and AF3480 were tested in parallel with 4F in this assay. Binding of LLT1-multimers was evaluated by flow cytometry.

CLEC2A-Fc protein = target: T4, CLEC2A-Fc protein (UniProt Q6UVW9 49-174); experiment: ELISA, coated Fc fusion protein
T4 construct: Negative control coat in the ELISA; not shown: Fc portion recognised by anti-human Ig
T4 sequence (looked up): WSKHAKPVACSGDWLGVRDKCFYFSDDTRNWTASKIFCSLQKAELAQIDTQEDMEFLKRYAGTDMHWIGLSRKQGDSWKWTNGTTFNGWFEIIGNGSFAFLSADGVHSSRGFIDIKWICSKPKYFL
Method: Anti-LLT12F1A5 and anti-LLT14F were compared to mAb's 4C7 and MAB3480 with respect to binding to CLEC2D (LLT1) fusion proteins in the ELISA application. Wells were coated with Fc fusion proteins representing full-length CLEC2D or splice variant 2 and 4 hereof (CLEC2D-iso2 and -iso4, respectively). Full-length CLEC2D contains exons 1, 2, 3, 4a and 5, whereas isoforms 2 and 4 contain exons 1, 2, 3, 4a, 4b, 5 and exons 1, 2, 3, 5, respectively. Coated wells were incubated with anti-LLT12F1A5, anti-LLT14F, MAB3480 or 4C7 antibodies. Wells not coated with protein (PBS) or coated with CLEC2A-Fc protein were included as negative controls. Antibody binding was detected by HRP-conjugated anti-mouse Ig secondary antibody and chromogen. HRP-conjugated anti-human Ig antibody was included as a positive control that recognized the Fc portion of both fusion proteins.

[4] = target: T1, lectin-like transcript 1 (LLT1), …; experiment: flow cytometry on C1R-LLT1 transfectants, anti-human IgG secondary antibody
Method: as §1

LLT1-Fc fusion protein [5] = target: T3, LLT1-Fc fusion protein; experiment: SPR (Biacore T100, 25 °C); LLT1-Fc immobilised on CM5 chip (500 RU), antibody 3.125 to 100 nM in solution
Method: Surface plasmon resonance measurements were performed on a Biacore T100 apparatus (Biacore) at 25° C. In all Biacore experiments, HBS buffer supplemented with 0.05% surfactant P20 served as running buffer and sensorgrams were analyzed with Biaevaluation software. Recombinant LLT1-Fc fusion protein (described by Aldemir et al in Journal of Immunology, 2005 vol. 176: 7791-7795) were immobilized covalently to carboxyl groups in the dextran layer on a Sensor Chip CM5 (Biacore). The sensor chip surface was activated with EDC/NHS(N-ethyl-N′-(3-dimethylaminopropyl) carbodiimidehydrochloride and N-hydroxysuccinimide, Biacore). Proteins diluted in coupling buffer (10 mM acetate, pH 4.5) were injected. Deactivation of the remaining activated groups was performed using 100 mM ethanolamine pH 8 (Biacore).
Anti-LLT12F1A5 was tested in a range of concentrations from 3.125 to 100 nM for binding to immobilized LLT1-Fc protein (500 RU).

EC50 (read off the curve) [1]: ~0.04 µg/mL
binding result [2]: no binding
IC50 (read off the curve) (LLT1-Fc fusion protein [3]): ~6 µg/mL
binding result (CLEC2A-Fc protein): no binding
B1: anti-LLT14F (antibody, mouse IgG1, V domains shown)
VH: EVQLVESGGGLVQPGGSLKLSCAASGFTVSSYGMSWVRQIPDKRLELVATINSNGGRTFYPDSVKGRFTISRDNAQNTLYLQMSSLKSEDTAMYYCARDGGYWAHFDYWGQGTTLTVSS
VL: DVLMTQTPLSLPVSLGDQASISCRSSQSIVHSNGNTYLEWYLQKPGQSPKLLIYKVSNRFSGVPDRFSGSGSGTDFTLKISRVEAEDLGVYYCFQGSHVPWTFGGGTKLEIKR
notes: also called anti-LLT14F68; anti-LLT1-4F68

EC50 (read off the curve) [4]: ~0.05 µg/mL
B2: anti-LLT14F-hIgG4 (antibody, V domains shown)
VH: B1 VH
VL: B1 VL
notes: Murine variable domains of anti-LLT14F on human kappa/IgG4 scaffold; also called chimeric mouse/human anti-LLT14F; ChimLLT14F; not shown: human IgG4 heavy chain constant region (CH) with hinge mutation S241P; human kappa light chain constant domain (CL)

binding result [2]: no binding
Kd (LLT1-Fc fusion protein [5]): 1.24 nM
binding result (CLEC2A-Fc protein): no binding
B3: anti-LLT12F1A5 (antibody, mouse IgG1, V domains shown)
VH: EVQLQQSGAELVRSGASVKLSCTASGFNIKDYYMHWVKQRPEQGLEWIGWIDPENGDTEYAPKFQGKATVTADTSSNTVYLQLSSLTSEDTAVYYCNGEIITTTAWFTYWGQGTLVTVSA
VL: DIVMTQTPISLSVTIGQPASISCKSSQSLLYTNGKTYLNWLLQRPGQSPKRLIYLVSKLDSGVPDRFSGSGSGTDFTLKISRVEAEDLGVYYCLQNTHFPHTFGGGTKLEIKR
notes: also called anti-LLT2F1; anti-LLT2F1A5

From patent publication US20130164299A1 (CENTRE NATIONAL DE LA RECHERCHE SCIENTIFIQUE, published 2013)
